The values below come from publication PMC9574375 (Cancer Research, 2022).

Data set [1] deals with the molecule itself. Briefly: non-reducing SDS-PAGE and immunoblot or Coomassie staining. (In general: Immunoblotting shows a protein as a band on a membrane.)
Data set [2] concerns the molecule itself. Described as above. This is another data set of the same source.

Where a chain is given by its changes, count along the chain named. In names and notes the source's numbering stands. Read-outs that look alike come from different tables or passages of the source.

B1: GST-tagged RET CLD4-CRD (amino acids 382–635) D567N (domain or fragment, human, UniProt P07949 382-635, looked up)
chain: QGPGAGVLLLHFNVSVLPVSLHLPSTYSLSVSRRARRFAQIGKVCVENCQAFSGINVQYKLHSSGANCSTLGVVTSAEDTSGILFVNDTKALRRPKCAELHYMVVATDQQTSRQAQAQLLVTVEGSYVAEEAGCPLSCAVSKRRLECEECGGLGSPTGRCEWRQGDGKGITRNFSTCSPSTKTCPNGHCDVVETQDINICPQDCLRGSIVGGHEPGEPRGIKAGYGTCNCFPEEEKCFCEPEDIQDPLCDELCR
For the protein B1, the binding result in data set [1] is reported as “binds”.

B2: GST-tagged RET CLD4-CRD (amino acids 382–635), wild type (domain or fragment, human, UniProt P07949 382-635, looked up)
chain: B1 chain with N186D
On to B2, for which the binding result in data set [2] is on record as “binds”.
